We go through eight molecules from US20110230406A1 (ADVANCED TECHNOLOGIES AND REGENERATIVE MEDICINE, published 2011).

No end group written: not given here.

For assay [1], the target named is T1, human serum albumin (human, UniProt P02768 25-609).
T1 construct: Cross-reactivity control coated at 5 micrograms/mL; also called HSA
The assay can be described thus: phage ELISA titration, HSA-coated wells, HRP anti-M13 antibody, luminescence. As for the experimental part:
(§1) 96-well black ELISA plates were coated with streptavidin (Rows A through D), hIgG (Rows E and F) and human serum albumin (Rows G and H), at a concentration of 5 micrograms/mL in PBS. Plates were incubated overnight at 4° C. Plates were washed 3 times with TBST using a plate washer. To the streptavidin-coated wells in rows C and D, 100 microliters of a 4 micrograms/mL solution of biotinylated-BMP-2 (R&D Systems, Minneapolis, Minn., Item number 355-BM/CF), was introduced and allowed to sit at room temperature for 30 minutes. To all other wells, 100 microliters of PBS was introduced. The plates were again washed 3 times with TBST using the plate washer. The wells were then blocked with 250 microliters of a 3% dehydrated milk suspension in TBST and allowed to sit at room temperature for a minimum of 1 hour. Using phage concentrations determined by the phage titrations, dilutions of the phage stock solutions were performed in a separate 96-well plate to result in phage concentrations of 10¹⁰, 10⁹, 10⁸, 10⁷, 10⁶ and 10⁵ phage/well. After blocking, the ELISA plate was washed 3 times with TBST and 100 microliters of the phage dilutions were introduced to the respective ELISA plates and allowed to sit at room temperature for a minimum of 1 hour. […] The luminescence was read using a luminometer set with a gain of 150.

Assay [2] addresses T2, biotinylated BMP-2 (R&D Systems, Item number 355-BM/CF) (human, UniProt P12643 283-396, biotinylated (sites not given)).
T2 construct: Bought protein, biotinylated, captured on streptavidin plates (phage ELISA) or streptavidin donor beads (ALPHA); also called bone morphogenic protein-2
The assay can be described thus: phage ELISA titration, biotinylated BMP-2 captured on streptavidin-coated wells, HRP anti-M13 antibody, luminescence. On the procedure: (§2) 96-well black ELISA plates were coated with streptavidin (Rows A through D), hIgG (Rows E and F) and human serum albumin (Rows G and H), at a concentration of 5 micrograms/mL in PBS. Plates were incubated overnight at 4° C. Plates were washed 3 times with TBST using a plate washer. To the streptavidin-coated wells in rows C and D, 100 microliters of a 4 micrograms/mL solution of biotinylated-BMP-2 (R&D Systems, Minneapolis, Minn., Item number 355-BM/CF), was introduced and allowed to sit at room temperature for 30 minutes. To all other wells, 100 microliters of PBS was introduced. The plates were again washed 3 times with TBST using the plate washer. The wells were then blocked with 250 microliters of a 3% dehydrated milk suspension in TBST and allowed to sit at room temperature for a minimum of 1 hour. Using phage concentrations determined by the phage titrations, dilutions of the phage stock solutions were performed in a separate 96-well plate to result in phage concentrations of 10¹⁰, 10⁹, 10⁸, 10⁷, 10⁶ and 10⁵ phage/well. After blocking, the ELISA plate was washed 3 times with TBST and 100 microliters of the phage dilutions were introduced to the respective ELISA plates and allowed to sit at room temperature for a minimum of 1 hour. The ELISA plate was again washed 3 times with TBST using the plate washer and 100 microliters of an HRP-conjugated Anti-M13 Phage Mab (1:5000 dilution in PBS) was introduced to each well. The plates were allowed to sit at room temperature for 1 hour after which time the plates were washed 3 times with TBST. Next, a POD HRP-substrate was introduced to each well. The luminescence was read using a luminometer set with a gain of 150.
In general terms: In an ELISA, binding on a coated surface is turned into a signal by an enzyme label.

For another assay, the target named is T3, human IgG (human).
T3 construct: Cross-reactivity control coated at 5 micrograms/mL; also called hIgG
The assay can be described thus: phage ELISA titration, hIgG-coated wells, HRP anti-M13 antibody, luminescence. As for the experimental part: as §1

Assay [3] concerns the target T4, rhBMP-2 (R&D Systems, Item number 355-BM/CF) (human, UniProt P12643 283-396).
T4 construct: Coupled to a CM4 chip by EDC/NHS in SPR; also called human recombinant BMP-2
The assay can be described thus: SPR (Biacore S51), rhBMP-2 on CM4 chip, peptide at 5 micromolar, 1:1 Langmuir fit, N=3. As for the experimental part: Peptide binding affinity to BMP-2 was evaluated for SEQ ID NO: 3 and SEQ ID NO: 6 by surface plasmon resonance measurements. Measurements were performed on a Biacore S51 (Biacore Life Sciences, Piscataway, N.J.) instrument using a CM4 Series-S sensor chip. rhBMP-2 (R&D Systems, Minneapolis, Minn., Item number 355-BM/CF) was immobilized on the sensor chip using 1-ethyl-3[3-dimethylaminopropyl]carbodiimide hydrochloride (EDC)/N-hydroxysuccinimide (NHS) coupling chemistry. […] Data were fit to a 1:1 Langmuir binding model using Biacore Analysis Software (Biacore Life Sciences, Piscataway, N.J.).
The data shown in Table 2 are average equilibrium dissociation constants with an N value of 3.

For assay [4], the target named is T1, human serum albumin. The assay can be described thus: phage ELISA, HSA-coated wells, HRP anti-M13 antibody, luminescence. On the procedure:
as §2

Another assay concerns the target Streptavidin. The assay can be described thus: phage ELISA titration, streptavidin-coated wells without BMP-2, HRP anti-M13 antibody, luminescence. On the procedure: as §1
In assay [5] the target is T2, biotinylated BMP-2 (R&D Systems, Item …). The experiment in a line: mutant phage ELISA titration on BMP-2 by the procedure of Example 3. As for the experimental part:
as §2, with “To” for “96-well black ELISA plates were coated with streptavidin (Rows A through D), hIgG (Rows E and F) and human serum albumin (Rows G and H), at a concentration of 5 micrograms/mL in PBS. Plates were incubated overnight at 4° C. Plates were washed 3 times with TBST using a plate washer. To the streptavidin-coated wells in rows C and D, 100 microliters of a 4 micrograms/mL solution of biotinylated-BMP-2 (R&D Systems, Minneapolis, Minn., Item number 355-BM/CF), was introduced and allowed to sit at room temperature for 30 minutes. To”
The respective custom oligonucleotide was obtained from Integrated DNA Technologies. The oligonucletides were inserted into the pIX gene using standard protocols. First, the oligonucletides were phosphorylated using T4 polynucleotide kinase. Next, the phosphorylated oligonucletides were annealed to the ssDNA template. Using the Kunkel method, the annealed DNA was ligated using T4 DNA ligase and T7 DNA polymerase. The resultant DNA was isolated using isopropanol precipitation and a gel was run to confirm the reaction. Lastly, electro-competent E. coli cells were transformed with the purified DNA and were plated out onto 2xYT/Tet/Xgal agar plates and allowed to grow overnight to isolate single colonies. An aliquot of the transformed cells was allowed to grow overnight at 37° C. while shaking in 50 mL 2xYT/tet media. The phage were then PEG precipitated following the procedure in Example 1. A phage titration was performed to determine the concentration of phage for the ELISA assay as described in Example 2. ELISA assays were performed following the procedure in Example 3.

Assay [6] shares this target. The experiment in a line: ALPHA, biotinylated BMP-2 at 0.825 micrograms/mL, Ni-acceptor and streptavidin-donor beads. On the procedure:
Diluted stock of biotinylated BMP-2 (R&D Systems, Minneapolis, Minn., Item number 355-BM/CF) at 3.3 micrograms/ml was prepared in 2× assay buffer (PBS, 0.01% Tween-80, 0.05% BSA). Chemically synthesized peptides having SEQ ID NO: 1, SEQ ID NO: 2, SEQ ID NO: 3, and SEQ ID NO: 6 were prepared using standard, automated Fluorenylmethyloxycarbonyl (Fmoc) solid phase peptide synthesis procedures. Each peptide solution for the assay was prepared from a 100 microgram/mL stock solution. The stock solution was serially diluted in ½ log steps in assay buffer resulting in peptide concentrations of 100, 33.3, 11.1, 3.70, 1.23, 0.41, 0.14, 0.046, 0.015, 0.0051, 0.0017 and 0.00056 micrograms/mL. Subsequently, serially diluted peptides were added to the corresponding wells containing the 10 microliters of the 3.3 microgram/mL solution of biotinylated BMP-2. Final assay test concentration for biotinylated BMP-2 was 0.825 micrograms/mL. Final peptide concentrations were 25, 8.3, 2.8, 0.93, 0.31, 0.10, 0.03, 0.01, 0.003, 0.001, 0.0003 and 0.0001 micrograms/mL. Next, Nickel (Ni)-acceptor and streptavidin (SA)-donor beads (Perkin Elmer, Waltham, Mass., Item number 6760619M) were diluted 1:100 in assay buffer prior to adding 20 microliters to each test well. […] The emission of the plate was read using a dual wavelength fluorometer (Perkin Elmer (Waltham, Mass.) Envision 2101 Multilabel Reader).

T2 sequence (P12643 283-396 limits assumed): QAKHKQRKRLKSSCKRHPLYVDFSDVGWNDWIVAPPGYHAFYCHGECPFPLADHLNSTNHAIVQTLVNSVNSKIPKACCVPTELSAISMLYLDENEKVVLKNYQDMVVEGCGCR
T4 sequence (P12643 283-396 limits assumed): as above

B1: phage displaying the peptide of SEQ ID NO: 4 on the pIX minor coat protein (peptide)
peptide: AGFRWWHTQPAHTLSYT
modifications: also: displayed on phage pIX minor coat protein, junction not given here
notes: not shown: pIX minor coat protein of the phage that carries the peptide
B1: the binding result (with human serum albumin [1]; in assay [2]) was “binds” each time. Also, in the assay with human IgG, the “EC50 (read off the curve)” value is approximately 1e+08 phage/well.

B2: phage displaying the peptide of SEQ ID NO: 7 on the pIX minor coat protein (peptide)
peptide: AGYRCSELPLYCST
modifications: cysteine pairing not given here; also: displayed on phage pIX minor coat protein
notes: as for B1
As for B2, in assay [2], the binding result was “binds”.

B3: chemically synthesized peptide having SEQ ID NO: 6 (peptide)
peptide: AGRDSFNLLTSSPLPST
notes: Fmoc solid phase synthesis; used in ALPHA, SPR and the alkaline phosphatase assay
In assay [3], B3 yielded a Kd of 303 nM.

B4: phage displaying the peptide of SEQ ID NO: 3 on the pIX minor coat protein (peptide)
peptide: AGYTSFALLKSAESTLP
modifications: also: displayed on phage pIX coat protein fusion
notes: as for B1
On to B4, for which the “EC50 (read off the curve)” value in assay [2] is approximately 1e+08 phage/well. The values for the binding result with human serum albumin [4] and with Streptavidin were “no binding (tested: 10^9 phage/mL)” and “no binding (tested: 1.00E+10 phage/well)”, respectively.

Turning to AGRDSFNLSSSSPLPST [SEQ ID NO: 30], the binding result in assay [5] is given as “no binding (tested: 1.00E+10 phage/well)”.

For AGLPLQSMSRLSYDSLS (Fmoc solid phase synthesis) [chemically synthesized peptide having SEQ ID NO: 1], in assay [6], the binding result was “binds”.

B5: chemically synthesized peptide having SEQ ID NO: 3 (peptide)
peptide: AGYTSFALLKSAESTLP
notes: Fmoc solid phase synthesis; used in ALPHA and SPR
As to B5, in assay [3], the Kd came to 398 nM.

With AGPPGPYIAASAFLALK (Fmoc solid phase synthesis) [chemically synthesized peptide having SEQ ID NO: 2], the binding result in assay [6] was “binds”.

By Kd is commonly meant a measure of binding affinity in units of concentration. A low value points to a tighter complex.
